The record followed here is US20240409638A1 (AVACTA LIFE SCIENCES, published 2024).

In assay [1] the target is T1, PD-L1 on cells (NCI-H441 cells; aAPC PD-L1/CHO-K1 cells, Promega) (human, UniProt Q9NZQ7 19-290).
T1 construct: whole, on cells; also called human PD-L1-expressing CHO-K1 cells; H441 cells endogenously expressing PD-L1
Kind of assay: flow cytometry, % positive cells, aAPC PD-L1/CHO-K1 cells (overexpressing PD-L1). How it is done:
(§1) Lung cancer cell line (NCI-H441 (ATCC), CHO-K1 recombinant cell line overexpressing PD-L1 aAPC/CHO-K1 (Promega J1252)) and a negative cell line (CHO-K1, ATCC) were used to assess AFFIMER® agent binding capacity to PD-L1 by flow cytometry.
(§2) Briefly, 50 000 cells were added to each well of a 96-well microplate. After this step and each subsequent step, cells were washed twice with PBS+2 mM EDTA using 350g centrifugation for 3 minutes at 4° C. All steps were performed at 4° C. using assay buffer comprising 5% FBS, 2 mM EDTA and 0.05% sodium azide in PBS unless otherwise stated. Independent AFFIMER® agent dilutions were prepared in duplicate and added to the plates. […] Fixation was performed for 10 minutes at 4° C. with Fixation Buffer (Bio-techne FC004). Cells were resuspended in 100 ul assay buffer prior the acquisition of the data. 5000 events were collected by Flow cytometry (Millipore Guava 12HT). The results were gated on live cells and singlets (SSC-H vs SSC-A). The percentage of cells expressing PD-L1 bound by the AFFIMER® agent (positive cells) was determined by using as negative control (background) where the wells were stained with the AF488 conjugated secondary antibody only without AFFIMER® agent. The average of the duplicate wells was used to calculate EC₅₀ using a four-parameter non-linear regression curve fit using Graphpad Prism software. […]
(In general: Flow cytometry measures light scatter and fluorescence of single cells or particles in a stream.)

Assay [2] addresses T2, human serum albumin (HSA) (human, UniProt P02768 25-609).
T2 construct: The assays used bought HSA (Sigma #A37812 in the SPR work); also called HuSA
Kind of assay: SPR, Biacore, HSA amine-coupled on CM5; E. coli-produced format. Here is the method:
(§3) For the HSA binding kinetic analysis, HSA (Sigma #A37812) was immobilized on a CM5 chip surface using amine coupling in 10 mM sodium acetate (pH 5.0) (Cytvia). […] The chip surface was regenerated with 3 mM NaOH for 20 seconds at a flow rate of 20 μl/min. The kinetic data was blank subtracted and fit to a 1:1 Langmuir binding model (BIAcore evaluation software; Cytiva).

The target of assay [3] is T3, murine serum albumin (MSA) (murine, UniProt P07724 25-608).
T3 construct: Bought reagent
Briefly: SPR, Biacore, MSA amine-coupled on CM5; E. coli-produced format.

In assay [4] the target is T1, PD-L1 on cells (NCI-H441 cells; aAPC …). Briefly: cell-based or functional assay.
Assay [5] addresses T4, human PD-L1-Fc (R&D Systems) (human, UniProt Q9NZQ7 19-239).
T4 construct: Bought reagent; also called huPD-L1-Fc; huPD-L1; not shown: Fc part of the bought fusion
Briefly: SPR (Biacore) kinetics: human PD-L1-Fc immobilised on a CM5 chip, AFFIMER as analyte.

For assay [6], the target named is T4, human PD-L1-Fc (R&D Systems). Briefly: SPR (Biacore) kinetics: human PD-L1-Fc immobilised on a CM5 chip, AFFIMER as analyte (column KD (pM), the same fit as the KD (M) column). In general terms: Surface plasmon resonance follows binding to a sensor surface in real time, without labels.
Assay [7] addresses T2, human serum albumin (HSA). Kind of assay: SPR (Biacore): immobilized ligand HSA (Sigma # A3782), AFFIMER as analyte, pH 7.0 by the legend. How it is done:
as §3

In assay [8] the target is T1, PD-L1 on cells (NCI-H441 cells; aAPC …). Briefly: flow cytometry, % positive cells, NCI-H441 cells (endogenous PD-L1). Here is the method: as §1, §2
Assay [9] has as its target T4, human PD-L1-Fc (R&D Systems). Kind of assay: human PD-L1-Fc binding ELISA: huPD-L1-Fc coated, anti-cystatin A detection, with 10 µM HSA in the assay buffer. Here is the method: Plates were washed and AFFIMER® polypeptides were detected using streptavidin-HRP for 30 min. After the last washing step, the TMB substrate was added for the development of the experiment and plates were read at 450 nm. The EC₅₀ was then calculated using the interpolated non-linear four-parameters standard curve.
Background: An ELISA detects its analyte on a solid surface through an enzyme-linked reagent.

Usually EC50 stands for the concentration giving half of the maximal effect. One may read the Kd as the constant that tells how readily two partners part at equilibrium. The low end stands for a tighter complex, the high end for a looser complex. By koff is commonly meant the first-order rate constant of dissociation. Read a high koff as a short-lived complex. The term kon denotes the rate constant with which the complex forms. Higher therefore signals faster complex formation.

T1 sequence (Q9NZQ7 19-290): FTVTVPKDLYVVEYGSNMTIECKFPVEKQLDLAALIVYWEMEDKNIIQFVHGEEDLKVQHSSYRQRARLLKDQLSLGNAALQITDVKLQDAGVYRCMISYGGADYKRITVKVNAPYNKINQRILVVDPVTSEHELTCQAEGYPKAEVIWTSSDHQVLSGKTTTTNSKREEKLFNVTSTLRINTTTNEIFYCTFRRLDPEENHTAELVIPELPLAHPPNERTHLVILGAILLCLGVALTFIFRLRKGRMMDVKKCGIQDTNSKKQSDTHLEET
T2 sequence (P02768 25-609): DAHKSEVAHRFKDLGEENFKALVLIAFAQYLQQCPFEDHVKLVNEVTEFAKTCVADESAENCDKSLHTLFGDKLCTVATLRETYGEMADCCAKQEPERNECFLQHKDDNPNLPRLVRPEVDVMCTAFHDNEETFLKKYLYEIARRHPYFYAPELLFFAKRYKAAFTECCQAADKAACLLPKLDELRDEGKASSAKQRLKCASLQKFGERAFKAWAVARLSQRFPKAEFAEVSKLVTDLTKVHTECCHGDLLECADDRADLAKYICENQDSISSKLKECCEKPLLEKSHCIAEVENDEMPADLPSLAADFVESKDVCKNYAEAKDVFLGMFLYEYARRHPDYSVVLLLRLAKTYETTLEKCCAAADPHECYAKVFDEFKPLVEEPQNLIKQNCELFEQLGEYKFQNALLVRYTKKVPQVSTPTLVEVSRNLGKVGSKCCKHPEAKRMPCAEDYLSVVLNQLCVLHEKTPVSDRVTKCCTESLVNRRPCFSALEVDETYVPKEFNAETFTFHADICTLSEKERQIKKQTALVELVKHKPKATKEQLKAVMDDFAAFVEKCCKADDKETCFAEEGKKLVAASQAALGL
T4 sequence (Q9NZQ7 19-239 limits assumed): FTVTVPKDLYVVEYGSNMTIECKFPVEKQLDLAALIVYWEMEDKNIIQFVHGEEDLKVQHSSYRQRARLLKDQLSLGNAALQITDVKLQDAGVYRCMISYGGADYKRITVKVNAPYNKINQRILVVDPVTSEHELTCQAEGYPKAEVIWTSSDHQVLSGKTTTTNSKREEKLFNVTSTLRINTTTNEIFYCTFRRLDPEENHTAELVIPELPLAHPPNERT

B1: Clone 80 XT35 (anti-PD-L1 type III AFFIMER® XT in-line fusion dimer XT) (designed binder)
chain: MIPGGLSEAKPATPEIQEIVDKVKPQLEEKTGETYGKLEAVQYKTQVVRRKHFPQWPGTNYYIKVRAGDNKYMHLKVFKSLDLQPREVFQEDLVLTGYQVDKNKDDELTGFAEAAAKEAAAKEAAAKEAAAKEAAAKEAAAKMIPGGLSEAKPATPEIQEIVDKVKPQLEEKTGETYGKLEAVQYKTQVVRRKHFPQWPGTNYYIKVRAGDNKYMHLKVFKSLDLQPREVFQEDLVLTGYQVDKNKDDELTGFAEAAAKEAAAKEAAAKEAAAKEAAAKEAAAKMIPRGLSEAKPATPEIQEIVDKVKPQLEEKTNETYGKLEAVQYKTQVLANFFQRRWPGSTNYYIKVRAGDNKYMHLKVFNGPWKFRNTDRGADRVLTGYQVDKNKDDELTGFHHHHHH
notes: Made in E. coli; Two Clone 80 units are fused to one HSA-41; also called XT35_1; ILF trimer format
Turning to B1, the EC50 is 0.036 nM in [1], 0.41 nM in [8] and 0.04 nM in assay [9]. Besides, the Kd in [2] turned out to be 9 nM; in assay [3], 269 nM; in [5] it was 0.0796 nM; in [6], 0.0796 nM; in assay [7], 9.09 nM. In addition, the “IC50 of PD-1/PD-L1 blockade (% of inhibition, Promega NFAT-luciferase reporter cells)” value in assay [4] stood at 131 nM. Further, the figures for the koff in assay [5] and in [7] were 0.000123 s⁻¹ and 0.00359 s⁻¹, respectively. Further, the kon in assay [5] stood at 1.55e+06 M⁻¹ s⁻¹; in assay [7], 395000 M⁻¹ s⁻¹.
